# Measurements published in patent US20240400654A1.
# “And” between values parts separate entries of the source, which are not always exact repeats. Equal entries are not always repeated.
# Assays:
# [1] = target: HRgpA-6H (Porphyromonas gingivalis) (UniProt P28784); experiment: ELISA, FASEBA Fab supernatant on coated HRgpA-6H
# [2] = target: HRgpA-6H (Porphyromonas gingivalis) (UniProt P28784); experiment: ELISA on coated HRgpA-6H, OD relative to parental Fab
# Chain of UniProt P28784 (P28784 228-860 limits assumed): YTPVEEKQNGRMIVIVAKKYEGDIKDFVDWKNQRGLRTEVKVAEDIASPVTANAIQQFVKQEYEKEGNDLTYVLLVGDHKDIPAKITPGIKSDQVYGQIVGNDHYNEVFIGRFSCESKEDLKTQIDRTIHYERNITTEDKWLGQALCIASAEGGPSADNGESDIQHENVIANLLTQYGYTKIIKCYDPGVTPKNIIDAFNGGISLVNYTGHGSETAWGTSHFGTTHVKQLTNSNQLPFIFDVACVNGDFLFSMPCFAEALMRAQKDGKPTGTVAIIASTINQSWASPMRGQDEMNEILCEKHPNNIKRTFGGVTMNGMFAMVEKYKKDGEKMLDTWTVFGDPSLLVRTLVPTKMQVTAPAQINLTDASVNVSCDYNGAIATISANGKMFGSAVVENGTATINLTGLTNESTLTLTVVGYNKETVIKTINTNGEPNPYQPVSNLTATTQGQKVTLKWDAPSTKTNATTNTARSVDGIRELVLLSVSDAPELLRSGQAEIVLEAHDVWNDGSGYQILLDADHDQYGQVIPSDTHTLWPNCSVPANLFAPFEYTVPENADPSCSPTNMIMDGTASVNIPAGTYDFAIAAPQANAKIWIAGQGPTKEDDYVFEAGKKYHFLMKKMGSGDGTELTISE
Binder,OD450 nm [1],Ratio OD(Variant)/OD(WT) [2]
"KB001 mouse Fab variant VL S95Q (Fab, V domains shown) VH: EVQLKQSGPGLVAPSQSLSITCTVSGFSLSIYSVHWVRQPPGKGLEWLGMIWGGGSSDYNSALKSRLSISKDNSKSQVFLKMNSLQTDDTAMYYCARNGNFYAMDYWGQGTSVTVSS VL: QIVLTQSPAIMSASLGERVTMTCTASSSVSSSFLHWYQQKPGSSPQLWIYSTSNLASGVPARFSGSGSGTSYSLTISSMEAEDAATYYCHQYHHQPYIYTFGGGTKLEIK",0.893,0.972 fold
"KB001 mouse Fab variant VL Y97V (Fab, V domains shown) VH: EVQLKQSGPGLVAPSQSLSITCTVSGFSLSIYSVHWVRQPPGKGLEWLGMIWGGGSSDYNSALKSRLSISKDNSKSQVFLKMNSLQTDDTAMYYCARNGNFYAMDYWGQGTSVTVSS VL: QIVLTQSPAIMSASLGERVTMTCTASSSVSSSFLHWYQQKPGSSPQLWIYSTSNLASGVPARFSGSGSGTSYSLTISSMEAEDAATYYCHQYHHSPVIYTFGGGTKLEIK",0.662,0.839 fold
"KB001 mouse Fab variant VL S95T (Fab, V domains shown) VH: EVQLKQSGPGLVAPSQSLSITCTVSGFSLSIYSVHWVRQPPGKGLEWLGMIWGGGSSDYNSALKSRLSISKDNSKSQVFLKMNSLQTDDTAMYYCARNGNFYAMDYWGQGTSVTVSS VL: QIVLTQSPAIMSASLGERVTMTCTASSSVSSSFLHWYQQKPGSSPQLWIYSTSNLASGVPARFSGSGSGTSYSLTISSMEAEDAATYYCHQYHHTPYIYTFGGGTKLEIK",0.871,0.948 fold
"KB001 mouse Fab variant VL S95H (Fab, V domains shown) VH: EVQLKQSGPGLVAPSQSLSITCTVSGFSLSIYSVHWVRQPPGKGLEWLGMIWGGGSSDYNSALKSRLSISKDNSKSQVFLKMNSLQTDDTAMYYCARNGNFYAMDYWGQGTSVTVSS VL: QIVLTQSPAIMSASLGERVTMTCTASSSVSSSFLHWYQQKPGSSPQLWIYSTSNLASGVPARFSGSGSGTSYSLTISSMEAEDAATYYCHQYHHHPYIYTFGGGTKLEIK",0.8,0.871 fold
"KB001 mouse Fab variant VL S95I (Fab, V domains shown) VH: EVQLKQSGPGLVAPSQSLSITCTVSGFSLSIYSVHWVRQPPGKGLEWLGMIWGGGSSDYNSALKSRLSISKDNSKSQVFLKMNSLQTDDTAMYYCARNGNFYAMDYWGQGTSVTVSS VL: QIVLTQSPAIMSASLGERVTMTCTASSSVSSSFLHWYQQKPGSSPQLWIYSTSNLASGVPARFSGSGSGTSYSLTISSMEAEDAATYYCHQYHHIPYIYTFGGGTKLEIK",0.846 and 0.817 and 0.791,0.921 fold and 0.889 fold and 0.861 fold
"KB001 mouse Fab variant VL S95W (Fab, V domains shown) VH: EVQLKQSGPGLVAPSQSLSITCTVSGFSLSIYSVHWVRQPPGKGLEWLGMIWGGGSSDYNSALKSRLSISKDNSKSQVFLKMNSLQTDDTAMYYCARNGNFYAMDYWGQGTSVTVSS VL: QIVLTQSPAIMSASLGERVTMTCTASSSVSSSFLHWYQQKPGSSPQLWIYSTSNLASGVPARFSGSGSGTSYSLTISSMEAEDAATYYCHQYHHWPYIYTFGGGTKLEIK",0.804 and 0.79,0.875 fold and 0.86 fold
"KB001 mouse Fab variant VL Y97F (Fab, V domains shown) VH: EVQLKQSGPGLVAPSQSLSITCTVSGFSLSIYSVHWVRQPPGKGLEWLGMIWGGGSSDYNSALKSRLSISKDNSKSQVFLKMNSLQTDDTAMYYCARNGNFYAMDYWGQGTSVTVSS VL: QIVLTQSPAIMSASLGERVTMTCTASSSVSSSFLHWYQQKPGSSPQLWIYSTSNLASGVPARFSGSGSGTSYSLTISSMEAEDAATYYCHQYHHSPFIYTFGGGTKLEIK",0.75 and 0.756,0.951 fold and 0.958 fold
"KB001 mouse Fab variant VL S95C (Fab, V domains shown) VH: EVQLKQSGPGLVAPSQSLSITCTVSGFSLSIYSVHWVRQPPGKGLEWLGMIWGGGSSDYNSALKSRLSISKDNSKSQVFLKMNSLQTDDTAMYYCARNGNFYAMDYWGQGTSVTVSS VL: QIVLTQSPAIMSASLGERVTMTCTASSSVSSSFLHWYQQKPGSSPQLWIYSTSNLASGVPARFSGSGSGTSYSLTISSMEAEDAATYYCHQYHHCPYIYTFGGGTKLEIK",0.849,0.924 fold
"KB001 mouse Fab variant VL Y97K (Fab, V domains shown) VH: EVQLKQSGPGLVAPSQSLSITCTVSGFSLSIYSVHWVRQPPGKGLEWLGMIWGGGSSDYNSALKSRLSISKDNSKSQVFLKMNSLQTDDTAMYYCARNGNFYAMDYWGQGTSVTVSS VL: QIVLTQSPAIMSASLGERVTMTCTASSSVSSSFLHWYQQKPGSSPQLWIYSTSNLASGVPARFSGSGSGTSYSLTISSMEAEDAATYYCHQYHHSPKIYTFGGGTKLEIK",0.654,0.829 fold
"KB001 mouse Fab variant VL Y97L (Fab, V domains shown) VH: EVQLKQSGPGLVAPSQSLSITCTVSGFSLSIYSVHWVRQPPGKGLEWLGMIWGGGSSDYNSALKSRLSISKDNSKSQVFLKMNSLQTDDTAMYYCARNGNFYAMDYWGQGTSVTVSS VL: QIVLTQSPAIMSASLGERVTMTCTASSSVSSSFLHWYQQKPGSSPQLWIYSTSNLASGVPARFSGSGSGTSYSLTISSMEAEDAATYYCHQYHHSPLIYTFGGGTKLEIK",0.739,0.937 fold
"KB001 mouse Fab variant VL Y97Q (Fab, V domains shown) VH: EVQLKQSGPGLVAPSQSLSITCTVSGFSLSIYSVHWVRQPPGKGLEWLGMIWGGGSSDYNSALKSRLSISKDNSKSQVFLKMNSLQTDDTAMYYCARNGNFYAMDYWGQGTSVTVSS VL: QIVLTQSPAIMSASLGERVTMTCTASSSVSSSFLHWYQQKPGSSPQLWIYSTSNLASGVPARFSGSGSGTSYSLTISSMEAEDAATYYCHQYHHSPQIYTFGGGTKLEIK",0.687,0.871 fold
"KB001 mouse Fab variant VL Y97I (Fab, V domains shown) VH: EVQLKQSGPGLVAPSQSLSITCTVSGFSLSIYSVHWVRQPPGKGLEWLGMIWGGGSSDYNSALKSRLSISKDNSKSQVFLKMNSLQTDDTAMYYCARNGNFYAMDYWGQGTSVTVSS VL: QIVLTQSPAIMSASLGERVTMTCTASSSVSSSFLHWYQQKPGSSPQLWIYSTSNLASGVPARFSGSGSGTSYSLTISSMEAEDAATYYCHQYHHSPIIYTFGGGTKLEIK",0.667,0.845 fold
"KB001 parental mouse Fab (FASEBA), WT clone (Fab, V domains shown) VH: EVQLKQSGPGLVAPSQSLSITCTVSGFSLSIYSVHWVRQPPGKGLEWLGMIWGGGSSDYNSALKSRLSISKDNSKSQVFLKMNSLQTDDTAMYYCARNGNFYAMDYWGQGTSVTVSS VL: QIVLTQSPAIMSASLGERVTMTCTASSSVSSSFLHWYQQKPGSSPQLWIYSTSNLASGVPARFSGSGSGTSYSLTISSMEAEDAATYYCHQYHHSPYIYTFGGGTKLEIK",0.9 and 0.889,0.98 fold and 0.968 fold
"KB001 mouse Fab variant VL I98L (Fab, V domains shown) VH: EVQLKQSGPGLVAPSQSLSITCTVSGFSLSIYSVHWVRQPPGKGLEWLGMIWGGGSSDYNSALKSRLSISKDNSKSQVFLKMNSLQTDDTAMYYCARNGNFYAMDYWGQGTSVTVSS VL: QIVLTQSPAIMSASLGERVTMTCTASSSVSSSFLHWYQQKPGSSPQLWIYSTSNLASGVPARFSGSGSGTSYSLTISSMEAEDAATYYCHQYHHSPYLYTFGGGTKLEIK",0.836,0.955 fold
"KB001 mouse Fab variant VL Y97R (Fab, V domains shown) VH: EVQLKQSGPGLVAPSQSLSITCTVSGFSLSIYSVHWVRQPPGKGLEWLGMIWGGGSSDYNSALKSRLSISKDNSKSQVFLKMNSLQTDDTAMYYCARNGNFYAMDYWGQGTSVTVSS VL: QIVLTQSPAIMSASLGERVTMTCTASSSVSSSFLHWYQQKPGSSPQLWIYSTSNLASGVPARFSGSGSGTSYSLTISSMEAEDAATYYCHQYHHSPRIYTFGGGTKLEIK",0.769,0.975 fold
"KB001 mouse Fab variant VL S95Y (Fab, V domains shown) VH: EVQLKQSGPGLVAPSQSLSITCTVSGFSLSIYSVHWVRQPPGKGLEWLGMIWGGGSSDYNSALKSRLSISKDNSKSQVFLKMNSLQTDDTAMYYCARNGNFYAMDYWGQGTSVTVSS VL: QIVLTQSPAIMSASLGERVTMTCTASSSVSSSFLHWYQQKPGSSPQLWIYSTSNLASGVPARFSGSGSGTSYSLTISSMEAEDAATYYCHQYHHYPYIYTFGGGTKLEIK",0.827,0.9 fold
"KB001 mouse Fab variant VL S95A (Fab, V domains shown) VH: EVQLKQSGPGLVAPSQSLSITCTVSGFSLSIYSVHWVRQPPGKGLEWLGMIWGGGSSDYNSALKSRLSISKDNSKSQVFLKMNSLQTDDTAMYYCARNGNFYAMDYWGQGTSVTVSS VL: QIVLTQSPAIMSASLGERVTMTCTASSSVSSSFLHWYQQKPGSSPQLWIYSTSNLASGVPARFSGSGSGTSYSLTISSMEAEDAATYYCHQYHHAPYIYTFGGGTKLEIK",0.83 and 0.872,0.904 fold and 0.949 fold
"KB001 mouse Fab variant VL Y97S (Fab, V domains shown) VH: EVQLKQSGPGLVAPSQSLSITCTVSGFSLSIYSVHWVRQPPGKGLEWLGMIWGGGSSDYNSALKSRLSISKDNSKSQVFLKMNSLQTDDTAMYYCARNGNFYAMDYWGQGTSVTVSS VL: QIVLTQSPAIMSASLGERVTMTCTASSSVSSSFLHWYQQKPGSSPQLWIYSTSNLASGVPARFSGSGSGTSYSLTISSMEAEDAATYYCHQYHHSPSIYTFGGGTKLEIK",0.633,0.802 fold
"KB001 mouse Fab variant VL Y97H (Fab, V domains shown) VH: EVQLKQSGPGLVAPSQSLSITCTVSGFSLSIYSVHWVRQPPGKGLEWLGMIWGGGSSDYNSALKSRLSISKDNSKSQVFLKMNSLQTDDTAMYYCARNGNFYAMDYWGQGTSVTVSS VL: QIVLTQSPAIMSASLGERVTMTCTASSSVSSSFLHWYQQKPGSSPQLWIYSTSNLASGVPARFSGSGSGTSYSLTISSMEAEDAATYYCHQYHHSPHIYTFGGGTKLEIK",0.775,0.982 fold
"KB001 mouse Fab variant VL S95N (Fab, V domains shown) VH: EVQLKQSGPGLVAPSQSLSITCTVSGFSLSIYSVHWVRQPPGKGLEWLGMIWGGGSSDYNSALKSRLSISKDNSKSQVFLKMNSLQTDDTAMYYCARNGNFYAMDYWGQGTSVTVSS VL: QIVLTQSPAIMSASLGERVTMTCTASSSVSSSFLHWYQQKPGSSPQLWIYSTSNLASGVPARFSGSGSGTSYSLTISSMEAEDAATYYCHQYHHNPYIYTFGGGTKLEIK",0.863 and 0.884,0.94 fold and 0.962 fold
